Measurements reported in IntAct's records for PubMed 29039417.

B1: BBSome complex member BBS5 (Homo sapiens), Q8N3I7 (parent)
chain: MSVLDALWEDRDVRFDLSAQQMKTRPGEVLIDCLDSIEDTKGNNGDRGRLLVTNLRILWHSLALSRVNVSVGYNCILNITTRTANSKLRGQTEALYILTKCNSTRFEFIFTNLVPGSPRLFTSVMAVHRAYETSKMYRDFKLRSALIQNKQLRLLPQEHVYDKINGVWNLSSDQGNLGTFFITNVRIVWHANMNDSFNVSIPYLQIRSIKIRDSKFGLALVIESSQQSGGYVLGFKIDPVEKLQESVKEINSLHKVYSASPIFGVDYEMEEKPQPLEALTVEQIQDDVEIDSDGHTDAFVAYFADGNKQQDREPVFSEELGLAIEKLKDGFTLQGLWEVMS
partner: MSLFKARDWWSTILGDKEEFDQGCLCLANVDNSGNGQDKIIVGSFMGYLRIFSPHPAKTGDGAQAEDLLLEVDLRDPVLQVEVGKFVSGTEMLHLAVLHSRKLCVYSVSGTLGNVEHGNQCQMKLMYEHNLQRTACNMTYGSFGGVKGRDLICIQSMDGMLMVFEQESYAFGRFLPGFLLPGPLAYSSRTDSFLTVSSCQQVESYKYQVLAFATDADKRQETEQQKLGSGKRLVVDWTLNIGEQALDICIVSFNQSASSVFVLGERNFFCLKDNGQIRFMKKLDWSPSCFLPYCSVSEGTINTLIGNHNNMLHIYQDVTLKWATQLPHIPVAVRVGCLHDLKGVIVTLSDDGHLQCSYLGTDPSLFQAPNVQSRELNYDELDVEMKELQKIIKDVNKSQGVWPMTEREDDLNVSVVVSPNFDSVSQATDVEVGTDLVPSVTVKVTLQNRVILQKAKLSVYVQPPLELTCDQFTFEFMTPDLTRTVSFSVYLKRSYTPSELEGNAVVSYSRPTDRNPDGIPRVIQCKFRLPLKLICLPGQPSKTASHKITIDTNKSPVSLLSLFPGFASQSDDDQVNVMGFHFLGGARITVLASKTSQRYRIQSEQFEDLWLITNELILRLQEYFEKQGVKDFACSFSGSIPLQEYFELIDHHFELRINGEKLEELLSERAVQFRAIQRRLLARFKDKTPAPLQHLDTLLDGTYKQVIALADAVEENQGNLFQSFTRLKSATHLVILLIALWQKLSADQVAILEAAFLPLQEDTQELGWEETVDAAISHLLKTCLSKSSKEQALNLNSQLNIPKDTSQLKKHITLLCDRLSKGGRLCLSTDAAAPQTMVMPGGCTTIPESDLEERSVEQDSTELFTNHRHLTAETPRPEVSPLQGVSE

Variants of: B1
Details: with pthb1_human BBS9, Q3SYG4

Variant	effect of a mutation on the interaction
A278E	with no effect
A278K	with no effect
F316E	with no effect
F316K	with no effect
F316A	with no effect
A298E	with no effect
A298K	with no effect
G294E	with no effect
G294A	with no effect
G294K	with no effect
H295E	with no effect
H295A	with no effect
H295K	with no effect
E289K	with no effect
E289A	with no effect
G264A	with no effect
G264K	with no effect
G264E	with no effect
S292K	with no effect
S292A	with no effect
S292E	with no effect
G306K	with no effect
G306A	with no effect
G306E	with no effect

Variant	effect of a mutation on the interaction
E277A	with no effect
E277K	with no effect
D266K	with no effect
D266A	with no effect
D266E	with no effect
Y257K	disrupting interaction strength
Y257E	with no effect
Y257A	with no effect
M269E	with no effect
M269K	with no effect
M269A	with no effect
Q283K	with no effect
Q283A	with no effect
Q283E	with no effect
V256A	with no effect
V256K	with no effect
V256E	with no effect
L253E	with no effect
L253K	with no effect
L253A	with no effect
E313A	with no effect
E313K	with no effect
P261E	with no effect
P261A	with no effect

Variant	effect of a mutation on the interaction
P261K	with no effect
F303E	with no effect
F303A	disrupting interaction strength
F303K	with no effect
F263A	with no effect
F263E	with no effect
F263K	with no effect
K255E	with no effect
K255A	with no effect
H254K	with no effect
H254A	with no effect
H254E	with no effect
L320A	with no effect
V300K	with no effect
V300E	with no effect
V300A	with no effect
D305K	with no effect
D305E	with no effect
D305A	with no effect
L279K	with no effect
L279E	with no effect
L279A	with no effect
E282K	with no effect
E282A	with no effect

Variant	effect of a mutation on the interaction
P275E	with no effect
P275A	with no effect
P275K	with no effect
L276K	with no effect
L276E	with no effect
L276A	with no effect
T280A	with no effect
T280E	with no effect
T280K	with no effect
K272E	with no effect
K272A	with no effect
E270K	with no effect
E270A	with no effect
T296E	with no effect
T296K	with no effect
T296A	with no effect
D287E	with no effect
D287K	with no effect
D287A	with no effect
S260K	with no effect
S260E	with no effect
S260A	with no effect
I284E	with no effect
I284A	with no effect

Variant	effect of a mutation on the interaction
I284K	with no effect
E319A	with no effect
E319K	with no effect
K308E	with no effect
K308A	with no effect
A259K	with no effect
A259E	with no effect
Q274E	with no effect
Q274A	with no effect
Q274K	with no effect
E271K	with no effect
E271A	with no effect
A301K	with no effect
A301E	with no effect
P273A	with no effect
P273K	with no effect
P273E	with no effect
V288A	with no effect
V288E	with no effect
V288K	with no effect
D293K	with no effect
D293A	with no effect
D293E	with no effect
A304K	with no effect

Variant	effect of a mutation on the interaction
A304E	with no effect
I290K	with no effect
I290E	with no effect
I290A	with no effect
Q309A	with no effect
Q309E	with no effect
Q309K	disrupting interaction strength
V265K	with no effect
V265A	with no effect
V265E	with no effect
D291K	with no effect
D291E	with no effect
D291A	with no effect
Q310A	with no effect
Q310K	with no effect
Q310E	with no effect
V315E	with no effect
V315A	with no effect
V315K	with no effect
P314K	with no effect
P314E	with no effect
P314A	with no effect
Q285K	with no effect
Q285A	disrupting interaction strength

Variant	effect of a mutation on the interaction
Q285E	with no effect
E268K	with no effect
E268A	with no effect
S258E	with no effect
S258A	with no effect
S258K	with no effect
I262E	with no effect
I262K	with no effect
I262A	with no effect
R312E	with no effect
R312A	with no effect
R312K	with no effect
S317A	with no effect
S317K	with no effect
S317E	with no effect
D286E	with no effect
D286K	with no effect
D286A	with no effect
V281E	with no effect
V281A	with no effect
V281K	with no effect
Y267K	with no effect
Y267E	with no effect
Y267A	with no effect

Variant	effect of a mutation on the interaction
F299A	with no effect
F299E	with no effect
F299K	with no effect
D297E	with no effect
D297A	with no effect
D297K	with no effect
N307K	with no effect
N307A	with no effect
N307E	with no effect
E318K	with no effect
E318A	with no effect
Y302K	disrupting interaction strength
Y302E	with no effect
Y302A	with no effect
D311E	with no effect
D311K	with no effect
D311A	with no effect
